The source of these data is US20210040185A1.

Experiment in all cases: cell-based or functional assay
The target in assay [1] is HIV-1 envelope (Env) of virus AC10.0.29 (HIV-1).
For assay [2], the target named is HIV-1 envelope (Env) of virus CNE20 (HIV-1).
Assay [3] has as its target HIV-1 envelope (Env) of virus CAP45.2.00.G3 (HIV-1).
In assay [4] the target is HIV-1 envelope (Env) of virus DU172.17 (HIV-1).
Assay [5] concerns the target HIV-1 envelope (Env) of virus WITO4160.33 (HIV-1).
Assay [6] concerns the target HIV-1 envelope (Env) of virus REJO4541.67 (HIV-1).

With 3BNC117 (antibody), the IC50 of viral neutralization (Env.IMC.LucR virus, TZM-BL reporter cells) in assay [1] is 11 µg/mL; in assay [2] it was above 50 µg/mL; in assay [3], 2.7 µg/mL; in assay [4], 1.25 µg/mL; in assay [5], 0.053 µg/mL; in assay [6], 0.07 µg/mL.
